The values that follow come from US5880103A, “Immunomodulatory peptides” (President and Fellows of Harvard College, priority 1995, dated 1999).

pKi: −log10 of the molar value.

For the assay, the target named is T1, HLA-DR1 (Homo sapiens, UniProt P01903+P01911, A100R/D57E/F55L/F60I/F76Y/I96L/L162R/M171V/P40L/Q125E/R42F/V115G/Y59C).
T1 construct: made in house; host or cells: Sf9 insect cells
Briefly: Competition of synthetic peptides against 125I-labeled HA 307-319 for binding to "empty" HLA-DR1.

On to “Ii 107-120: invariant chain peptide named in the text as highest-affinity competitor; probably the Ii 106-120 entry of Table 2 (MRMATPLLMQALPM)”, for which, where the note is “competitor peptides vs HA 307-319, "empty" DR1, at first approximation”, the “relative binding affinity to DR1 (in words)” value is reported as “highest affinity of all the competitor peptides measured”.
For the molecule `CSCC[C@H](NC(=O)[C@H](CCCNC(=N)N)NC(=O)[C@H](CCSC)NC(=O)[C@H](CCCCN)NC(=O)[C@H](CO)NC(=O)[C@@H](NC(=O)[C@@H]1CCCN1C(=O)[C@H](CCCCN)NC(=O)[C@@H]1CCCN1C(=O)[C@@H]1CCCN1C(=O)[C@H](CCCCN)NC(=O)[C@@H]1CCCN1C(=O)[C@@H](N)CC(C)C)C(C)C)C(=O)N[C@@H](C)C(=O)N[C@H](C(=O)O)[C@@H](C)O` [Ii 97-111], the negative logarithm of the Ki (pKi) was below 5.00.

A word on the pKi: it is the negative decadic logarithm of the Ki, by convention in mol/L.
